Tests used:
Experiment in all cases: cell_activity
Conditions in all cases: H358 cells, 50 ng plasmid
[1] = tested on: V-325 (VP16-75-325-lz) (Homo sapiens / herpes simplex virus chimera)
[2] = molecular target: wild-type p53 (Homo sapiens) (UniProt P04637)
[3] = tested on: V-336 (VP16-75-336-lz) (Homo sapiens / herpes simplex virus chimera)

wild-type p53 (Homo sapiens), sequence (P04637 whole entry): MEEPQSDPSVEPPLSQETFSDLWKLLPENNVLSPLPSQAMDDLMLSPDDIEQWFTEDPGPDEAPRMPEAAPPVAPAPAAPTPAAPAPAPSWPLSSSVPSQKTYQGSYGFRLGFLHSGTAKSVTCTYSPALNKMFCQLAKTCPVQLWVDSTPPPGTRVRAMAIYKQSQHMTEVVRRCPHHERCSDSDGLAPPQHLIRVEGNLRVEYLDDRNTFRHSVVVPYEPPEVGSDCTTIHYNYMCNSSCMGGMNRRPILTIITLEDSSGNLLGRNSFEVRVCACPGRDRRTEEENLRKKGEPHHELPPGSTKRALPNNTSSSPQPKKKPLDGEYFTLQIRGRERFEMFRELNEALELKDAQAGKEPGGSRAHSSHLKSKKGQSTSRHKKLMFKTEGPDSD

Work on p53RE consensus CAT reporter yielded an activity (relative CAT activity (vector=1)) [1] of 25, an activity (relative CAT activity (vector=1)) [2] of 6 and an activity (relative CAT activity (vector=1)) [3] of 16.

— US6326464
